In this assay the target is F-actin (skeletal muscle actin) (Oryctolagus cuniculus, UniProt P68135). Kind of assay: high-speed co-sedimentation.

These results are taken from paper PMC2879707 (2011).

As a reminder, the Kd is the concentration at which binding is half-saturated. Low values mean higher affinity, high ones lower affinity.

B1: TRIOBP-4 isoform 4 (protein)
chain: MSMEQDTRALLPTQGTAWATASAPVARLQGPQGDSHQACSQEPHSPSSAEAPYCDLPRCPPALQNPLRTTTCVGQSVHSLGLGLGQEPQRVWSPTTALPAEGPAAAPKNRHQDSEGIPYLEGLARSSCTDDNDNKDEDEDPNSNTSSSQDSNTPHDTSNSSSVDWDTTERPGVVPSRNRLTEMIPRRPQEGLRADSARKATRSPARGDTAGQRKENSGSGGQSAGQHWAKLRSESGYFSLERQRSGQTQASSGTPPSGPRGTTQASSAQRDVFQAAPAQEAPQTSSLPRNTQRDTQRSTPRTSSPSRVSQRDTPRVMSTQRKNTPLSSPLRATPETLKISAPEDGTHVTPSPCVQDSSLNRTSQRDSSRTPCIQWDNPRASSPNRTTQRDNPRTPCTQRDNPRASSPNRTTQRDNPRTPCTQRDNPRASSPNRTTQRDNPRTPCAQRDNPRAASPNRSTQRDSPRTPCAQRDNPRASSPNRTAQRDNPRTPCAQRDNPRTSCTSQNTPRTPSTQADKTTASCSKWEHLRSACTQRDNPRTFSQGCTQKDNPGPPSPRRATQGSNSRNPSPHRTNKDIPWASFPLRPTQSDSPRTSSPSRTKQNQVPWASISLRPTQGDKPQTSAPTRLAHNDPPQQYSPSLATTSSSSHNPGHSSASRTSSPLHAAPRGAPQTSLESSQPPCTVCIGHRDAPRASSPPRYFQYDPFPFFPDPRSSESESPHHEPPYMPPAVCIGHRDAPRATSPPRHTQFDPFPFLPDTSDADNESPQHDPPQFPPPVCIGYRDAPRASSPPRQFPEPSFFQDLPRASTESLVPSTDSMHEPPHIPTPVCIGHRDAPSFSSPPRQAPEPSLFFQDPPGTSMESLAPSIDSLHGCPLLPPQVCIGHRDAPRASSPPRHPPSDIGLLAPSPPPGSSGSRGSAPPGETRHNLEREEYTMLADLPPPRRLAQRGPEPQAQGSNEGRTRSPGRAEVERLFGQERRKSEAPGAFQTRDEGRSQRPSQAQSQLRRQSSPAP
modifications: N-terminal GFP and C-terminal FLAG fusion on TRIOBP-4, filamentous actin
B1: the Kd was 940 nM.
